# Assay results published in PMC10469627, “Molecular basis of the glycosomal targeting of PEX11 and its mislocalization to mitochondrion in trypanosomes” (Frontiers in Cell and Developmental Biology, 2023).
# T1: GST-HsPEX19 (human, UniProt P40855 1-299)
# T1 construct: human PEX19, expressed from pGEX4T1-HsPEX19; also called GST-tagged recombinant human PEX19; recombinant human GST-PEX19; source: E. coli BL21 (DE3), purified (Glutathione Agarose 4B)
# T1 sequence (looked up): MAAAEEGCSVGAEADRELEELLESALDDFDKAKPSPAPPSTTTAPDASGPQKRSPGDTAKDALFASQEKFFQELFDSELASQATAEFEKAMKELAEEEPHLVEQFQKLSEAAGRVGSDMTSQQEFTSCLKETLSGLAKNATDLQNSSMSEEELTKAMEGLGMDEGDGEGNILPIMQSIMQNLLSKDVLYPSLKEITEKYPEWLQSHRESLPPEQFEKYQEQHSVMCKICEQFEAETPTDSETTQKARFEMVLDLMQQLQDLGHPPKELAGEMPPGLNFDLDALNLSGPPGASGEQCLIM
# B1: TbPEX11 array peptides of BS2 (aa 77-99) (peptide)
# peptide: CRAKGKVNMKEVLKFLRVLCNFL
# notes: PEX11 of Trypanosoma brucei, residues 77-99 (BS2); on the array this stretch stood as consecutive overlapping 15-mers (2 aa shift), each on its own spot; source: synthetic peptides, synthesized on a cellulose membrane
# B2: TbPEX11 array peptides of BS3 (aa 139-159) (peptide)
# peptide: VLDVVALYGALQKRASDPATS
# notes: PEX11 of Trypanosoma brucei, residues 139-159 (BS3); on the array this stretch stood as consecutive overlapping 15-mers (2 aa shift), each on its own spot; source: synthetic peptides, synthesized on a cellulose membrane
# B3: TbPEX11 array peptides of BS1 (aa 13-35) (peptide)
# peptide: QTDGRDKILKAFSGVFKALGSLD
# notes: PEX11 of Trypanosoma brucei, residues 13-35 (BS1); on the array this stretch stood as consecutive overlapping 15-mers (2 aa shift), each on its own spot; source: synthetic peptides, synthesized on a cellulose membrane
# Biological target: T1, GST-HsPEX19
# Test: peptide or protein array; 15-mer peptides (2 aa shift) on a cellulose membrane; probed with 1 µM GST fusion or GST in TBS + 3% BSA + 0.05% Tween-20, 1 h at 4°C; detected with anti-GST antibody and chemiluminescence; at least three consecutive spots counted as a potential site
# Conditions: both partners purified
row,Binder,binding result
1,B1,binds
2,B2,binds
3,B3,binds
